Measured values published in publication doi:10.1101/2023.03.23.533937, “From Microstates to Macrostates in the Conformational Dynamics of GroEL: a Single-Molecule FRET Study” (bioRxiv, 2023).

Target: T1, double-ring GroEL construct with the same labeling positions (255C/428C) (E. coli, UniProt P0A6F5 2-548; P0A6F5 2-548, 255C | 428C, AlexaFluor 488 and AlexaFluor 594 attached at the labeling positions 255 and 428 (cysteines))
T1 construct: GroEL subunit, E. coli, with cysteines at the labeling sites E255 and D428; unmodified GroEL subunit, E. coli; GroEL has 14 subunits in two heptameric rings; That the remaining subunits are unmodified wild-type GroEL is surmised from 'the same reassembly procedure'; also called double-ring variant; double-ring construct; source: prepared using the same reassembly procedure as the labeled SR1 …
Test: intramolecular single-molecule FRET of one labeled subunit (conformational read-out); pulsed-interleaved excitation smFRET on diluted, freely diffusing labeled complexes; 1 mM ATP with a stoichiometric excess of GroES relative to GroEL (also with ADP-BeFx in place of ATP); about 22 °C
Conditions: both partners purified

binding result: binds
B1: co-chaperone GroES (natural protein, E. coli)
chain: MNIRPLHDRVIVKRKEVETKSAGGIVLTGSAAAKSTRGEVLAVGNGRILENGEVKPLDVKVGDIVIFNDGYGVKSEKIDNEEVLIMSESDILAIVEA
notes: GroES, co-chaperone of GroEL, E. coli; a heptameric complex; Source and construct of GroES may stand in the supporting information; also called co-chaperonin GroES
